Assay results as given in US20240382587A1 (TRUSTEES OF INDIANA UNIVERSITY, published 2024).

Target: T1, recombinant human B domain deleted (BDD)-FVIII (Xyntha) (human, UniProt P00451 20-2351)
T1 sequence (looked up): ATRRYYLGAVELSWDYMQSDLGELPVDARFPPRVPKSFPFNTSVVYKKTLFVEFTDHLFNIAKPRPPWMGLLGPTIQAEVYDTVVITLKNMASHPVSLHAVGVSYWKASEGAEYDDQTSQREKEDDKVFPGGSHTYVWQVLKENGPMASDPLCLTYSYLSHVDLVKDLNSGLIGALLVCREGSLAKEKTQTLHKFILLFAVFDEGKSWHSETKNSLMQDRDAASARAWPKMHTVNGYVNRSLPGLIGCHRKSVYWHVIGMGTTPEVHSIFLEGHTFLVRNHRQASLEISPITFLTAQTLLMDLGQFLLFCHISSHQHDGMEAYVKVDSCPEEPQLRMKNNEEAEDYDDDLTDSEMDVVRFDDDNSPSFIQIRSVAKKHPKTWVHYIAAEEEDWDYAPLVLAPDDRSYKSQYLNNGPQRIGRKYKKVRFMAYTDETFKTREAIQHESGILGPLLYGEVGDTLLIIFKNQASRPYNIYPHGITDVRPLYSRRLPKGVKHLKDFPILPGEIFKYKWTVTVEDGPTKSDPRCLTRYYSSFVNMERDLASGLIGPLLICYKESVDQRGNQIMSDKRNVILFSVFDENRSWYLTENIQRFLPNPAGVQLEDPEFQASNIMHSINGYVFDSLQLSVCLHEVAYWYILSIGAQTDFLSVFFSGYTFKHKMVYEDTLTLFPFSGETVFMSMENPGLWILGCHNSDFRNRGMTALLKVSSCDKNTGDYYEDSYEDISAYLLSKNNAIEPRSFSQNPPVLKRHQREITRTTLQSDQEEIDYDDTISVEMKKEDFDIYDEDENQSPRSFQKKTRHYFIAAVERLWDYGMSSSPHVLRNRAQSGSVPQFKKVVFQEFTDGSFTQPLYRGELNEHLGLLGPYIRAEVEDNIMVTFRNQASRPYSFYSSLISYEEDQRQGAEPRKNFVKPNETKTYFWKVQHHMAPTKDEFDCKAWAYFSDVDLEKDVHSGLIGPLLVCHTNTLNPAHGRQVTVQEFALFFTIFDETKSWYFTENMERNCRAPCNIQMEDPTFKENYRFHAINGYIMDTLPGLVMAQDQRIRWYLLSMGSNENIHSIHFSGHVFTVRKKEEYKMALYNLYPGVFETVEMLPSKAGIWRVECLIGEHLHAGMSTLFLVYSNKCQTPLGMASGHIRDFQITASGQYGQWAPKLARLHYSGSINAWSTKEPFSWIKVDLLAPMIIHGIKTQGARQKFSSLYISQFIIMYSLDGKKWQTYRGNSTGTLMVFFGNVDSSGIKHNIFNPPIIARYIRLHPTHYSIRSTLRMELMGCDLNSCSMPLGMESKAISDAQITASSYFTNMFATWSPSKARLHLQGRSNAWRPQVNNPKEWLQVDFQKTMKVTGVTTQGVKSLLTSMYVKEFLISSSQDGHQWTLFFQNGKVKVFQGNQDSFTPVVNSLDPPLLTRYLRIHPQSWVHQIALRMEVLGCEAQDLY
Test: cell-based or functional assay

B1: FVIII TRUC (TCR fusion construct: BO2C11 FVIII scFv fused to the N-terminus of murine CD3 epsilon) (scFv)
chain: EIALTQSPGTLSLSPGERATLSCRASQSFSSSYLAWYQQKPGQAPRLLIYGASTRATGIPDRFSGSGSGTDFTLTISRLEPEDFAVYYCQKYGTSAITFGQGTRLEIKGGGGGSGGGGSGGGGSQVQLVQSGAEVKKPGASVKVSCKVSGYTLTELPVHWVRQAPGKGLEWVGSFDPESGESIYAREFQGSVTMTADTSTDIAYMELSSLRSDDTAVYYCAVPDPDAFDIWGQGTMVTVSSGGGGSGGGGSGGGGSDAENIEYKVSISGTSVELTCPLDSDENLKWEKNGQELPQKHDKHLVLQDFSEVEDSGYYVCYTPASNKNTYLYLKARVCEYCVEVDLTAVAIIIIVDICITLGLLMVIYYWSKNRKAKAKPVTRGTGAGSRPRGQNKERPPPVPNPDYEPIRKGQRDLYSGLNQRAV
CTLA4 expression in TRUC Tregs in vitro: 5 fold
